Assay results reported in patent publication US9657062B2, “Ghrelin analogues” (Zealand Pharma A/S, priority 2012, dated 2017).
*1 amine or outer side, *2 acyl side, *3 side chain or, on linkers, in order; H or OH if unused. [ ]: non-standard residue; d: D form. The star is where a group is joined. Cmp = 4-carboxymethyl-piperidine, O=C(CC1CCN([*:1])CC1)[*:2]; Achc(cis-1,4) = O=C([C@H]1CC[C@@H](N[*:1])CC1)[*:2]; Octanoyl = CCCCCCCC(=O)*; Octyl = CCCCCCCC*

B1: H-[cACC]-S(O-octyl)-FLSPEHQRVQQRKESKKPPAKLQPR-NH2 (peptide)
peptide: H-[Achc(cis-1,4)]S(Octyl)FLSPEHQRVQQRKESKKPPAKLQPR-NH2
SMILES: CCCCCCCCOC[C@H](NC(=O)[C@H]1CC[C@@H](N)CC1)C(=O)N[C@@H](Cc1ccccc1)C(=O)N[C@@H](CC(C)C)C(=O)N[C@@H](CO)C(=O)N1CCC[C@H]1C(=O)N[C@@H](CCC(=O)O)C(=O)N[C@@H](Cc1c[nH]cn1)C(=O)N[C@@H](CCC(N)=O)C(=O)N[C@@H](CCCNC(=N)N)C(=O)N[C@H](C(=O)N[C@@H](CCC(N)=O)C(=O)N[C@@H](CCC(N)=O)C(=O)N[C@@H](CCCNC(=N)N)C(=O)N[C@@H](CCCCN)C(=O)N[C@@H](CCC(=O)O)C(=O)N[C@@H](CO)C(=O)N[C@@H](CCCCN)C(=O)N[C@@H](CCCCN)C(=O)N1CCC[C@H]1C(=O)N1CCC[C@H]1C(=O)N[C@@H](C)C(=O)N[C@@H](CCCCN)C(=O)N[C@@H](CC(C)C)C(=O)N[C@@H](CCC(N)=O)C(=O)N1CCC[C@H]1C(=O)N[C@@H](CCCNC(=N)N)C(N)=O)C(C)C
B2: H-PS-S(O-octyl)-FLSPEHQRVQRKESKKPPAKLQPR-NH2 (peptide)
peptide: H-PSS(Octyl)FLSPEHQRVQRKESKKPPAKLQPR-NH2
SMILES: CCCCCCCCOC[C@H](NC(=O)[C@H](CO)NC(=O)[C@@H]1CCCN1)C(=O)N[C@@H](Cc1ccccc1)C(=O)N[C@@H](CC(C)C)C(=O)N[C@@H](CO)C(=O)N1CCC[C@H]1C(=O)N[C@@H](CCC(=O)O)C(=O)N[C@@H](Cc1c[nH]cn1)C(=O)N[C@@H](CCC(N)=O)C(=O)N[C@@H](CCCNC(=N)N)C(=O)N[C@H](C(=O)N[C@@H](CCC(N)=O)C(=O)N[C@@H](CCCNC(=N)N)C(=O)N[C@@H](CCCCN)C(=O)N[C@@H](CCC(=O)O)C(=O)N[C@@H](CO)C(=O)N[C@@H](CCCCN)C(=O)N[C@@H](CCCCN)C(=O)N1CCC[C@H]1C(=O)N1CCC[C@H]1C(=O)N[C@@H](C)C(=O)N[C@@H](CCCCN)C(=O)N[C@@H](CC(C)C)C(=O)N[C@@H](CCC(N)=O)C(=O)N1CCC[C@H]1C(=O)N[C@@H](CCCNC(=N)N)C(N)=O)C(C)C
B3: H-FS-S(O-octanoyl)-FLSPEHQRVQQRKESKKPPAKLQPR-OH (peptide)
peptide: H-FSS(Octanoyl)FLSPEHQRVQQRKESKKPPAKLQPR-OH
SMILES: CCCCCCCC(=O)OC[C@H](NC(=O)[C@H](CO)NC(=O)[C@@H](N)Cc1ccccc1)C(=O)N[C@@H](Cc1ccccc1)C(=O)N[C@@H](CC(C)C)C(=O)N[C@@H](CO)C(=O)N1CCC[C@H]1C(=O)N[C@@H](CCC(=O)O)C(=O)N[C@@H](Cc1c[nH]cn1)C(=O)N[C@@H](CCC(N)=O)C(=O)N[C@@H](CCCNC(=N)N)C(=O)N[C@H](C(=O)N[C@@H](CCC(N)=O)C(=O)N[C@@H](CCC(N)=O)C(=O)N[C@@H](CCCNC(=N)N)C(=O)N[C@@H](CCCCN)C(=O)N[C@@H](CCC(=O)O)C(=O)N[C@@H](CO)C(=O)N[C@@H](CCCCN)C(=O)N[C@@H](CCCCN)C(=O)N1CCC[C@H]1C(=O)N1CCC[C@H]1C(=O)N[C@@H](C)C(=O)N[C@@H](CCCCN)C(=O)N[C@@H](CC(C)C)C(=O)N[C@@H](CCC(N)=O)C(=O)N1CCC[C@H]1C(=O)N[C@@H](CCCNC(=N)N)C(=O)O)C(C)C
B4: H-PS-S(O-octyl)-FLSPEHSRVSSRKESKKPPAKLSPR-NH2 (peptide)
peptide: H-PSS(Octyl)FLSPEHSRVSSRKESKKPPAKLSPR-NH2
SMILES: CCCCCCCCOC[C@H](NC(=O)[C@H](CO)NC(=O)[C@@H]1CCCN1)C(=O)N[C@@H](Cc1ccccc1)C(=O)N[C@@H](CC(C)C)C(=O)N[C@@H](CO)C(=O)N1CCC[C@H]1C(=O)N[C@@H](CCC(=O)O)C(=O)N[C@@H](Cc1c[nH]cn1)C(=O)N[C@@H](CO)C(=O)N[C@@H](CCCNC(=N)N)C(=O)N[C@H](C(=O)N[C@@H](CO)C(=O)N[C@@H](CO)C(=O)N[C@@H](CCCNC(=N)N)C(=O)N[C@@H](CCCCN)C(=O)N[C@@H](CCC(=O)O)C(=O)N[C@@H](CO)C(=O)N[C@@H](CCCCN)C(=O)N[C@@H](CCCCN)C(=O)N1CCC[C@H]1C(=O)N1CCC[C@H]1C(=O)N[C@@H](C)C(=O)N[C@@H](CCCCN)C(=O)N[C@@H](CC(C)C)C(=O)N[C@@H](CO)C(=O)N1CCC[C@H]1C(=O)N[C@@H](CCCNC(=N)N)C(N)=O)C(C)C
B5: H-SS-S(O-octanoyl)-FLSPEHQRVQQRKESKKPPAKLQPR-OH (peptide)
peptide: H-SSS(Octanoyl)FLSPEHQRVQQRKESKKPPAKLQPR-OH
SMILES: CCCCCCCC(=O)OC[C@H](NC(=O)[C@H](CO)NC(=O)[C@@H](N)CO)C(=O)N[C@@H](Cc1ccccc1)C(=O)N[C@@H](CC(C)C)C(=O)N[C@@H](CO)C(=O)N1CCC[C@H]1C(=O)N[C@@H](CCC(=O)O)C(=O)N[C@@H](Cc1c[nH]cn1)C(=O)N[C@@H](CCC(N)=O)C(=O)N[C@@H](CCCNC(=N)N)C(=O)N[C@H](C(=O)N[C@@H](CCC(N)=O)C(=O)N[C@@H](CCC(N)=O)C(=O)N[C@@H](CCCNC(=N)N)C(=O)N[C@@H](CCCCN)C(=O)N[C@@H](CCC(=O)O)C(=O)N[C@@H](CO)C(=O)N[C@@H](CCCCN)C(=O)N[C@@H](CCCCN)C(=O)N1CCC[C@H]1C(=O)N1CCC[C@H]1C(=O)N[C@@H](C)C(=O)N[C@@H](CCCCN)C(=O)N[C@@H](CC(C)C)C(=O)N[C@@H](CCC(N)=O)C(=O)N1CCC[C@H]1C(=O)N[C@@H](CCCNC(=N)N)C(=O)O)C(C)C
B6: H-PS-S(O-octyl)-FLSPEHQRVQQRKES-NH2 (peptide)
peptide: H-PSS(Octyl)FLSPEHQRVQQRKES-NH2
SMILES: CCCCCCCCOC[C@H](NC(=O)[C@H](CO)NC(=O)[C@@H]1CCCN1)C(=O)N[C@@H](Cc1ccccc1)C(=O)N[C@@H](CC(C)C)C(=O)N[C@@H](CO)C(=O)N1CCC[C@H]1C(=O)N[C@@H](CCC(=O)O)C(=O)N[C@@H](Cc1c[nH]cn1)C(=O)N[C@@H](CCC(N)=O)C(=O)N[C@@H](CCCNC(=N)N)C(=O)N[C@H](C(=O)N[C@@H](CCC(N)=O)C(=O)N[C@@H](CCC(N)=O)C(=O)N[C@@H](CCCNC(=N)N)C(=O)N[C@@H](CCCCN)C(=O)N[C@@H](CCC(=O)O)C(=O)N[C@@H](CO)C(N)=O)C(C)C
B7: H-Cmp-S(O-octanoyl)-FLSPEHQRVQQRKESKKPPAKLQPR-OH (peptide)
peptide: H-[Cmp]S(Octanoyl)FLSPEHQRVQQRKESKKPPAKLQPR-OH
SMILES: CCCCCCCC(=O)OC[C@H](NC(=O)CC1CCNCC1)C(=O)N[C@@H](Cc1ccccc1)C(=O)N[C@@H](CC(C)C)C(=O)N[C@@H](CO)C(=O)N1CCC[C@H]1C(=O)N[C@@H](CCC(=O)O)C(=O)N[C@@H](Cc1c[nH]cn1)C(=O)N[C@@H](CCC(N)=O)C(=O)N[C@@H](CCCNC(=N)N)C(=O)N[C@H](C(=O)N[C@@H](CCC(N)=O)C(=O)N[C@@H](CCC(N)=O)C(=O)N[C@@H](CCCNC(=N)N)C(=O)N[C@@H](CCCCN)C(=O)N[C@@H](CCC(=O)O)C(=O)N[C@@H](CO)C(=O)N[C@@H](CCCCN)C(=O)N[C@@H](CCCCN)C(=O)N1CCC[C@H]1C(=O)N1CCC[C@H]1C(=O)N[C@@H](C)C(=O)N[C@@H](CCCCN)C(=O)N[C@@H](CC(C)C)C(=O)N[C@@H](CCC(N)=O)C(=O)N1CCC[C@H]1C(=O)N[C@@H](CCCNC(=N)N)C(=O)O)C(C)C
B8: H-PS-S(O-octyl)-FLSPEHQRVQQRKESKKPPA-NH2 (peptide)
peptide: H-PSS(Octyl)FLSPEHQRVQQRKESKKPPA-NH2
SMILES: CCCCCCCCOC[C@H](NC(=O)[C@H](CO)NC(=O)[C@@H]1CCCN1)C(=O)N[C@@H](Cc1ccccc1)C(=O)N[C@@H](CC(C)C)C(=O)N[C@@H](CO)C(=O)N1CCC[C@H]1C(=O)N[C@@H](CCC(=O)O)C(=O)N[C@@H](Cc1c[nH]cn1)C(=O)N[C@@H](CCC(N)=O)C(=O)N[C@@H](CCCNC(=N)N)C(=O)N[C@H](C(=O)N[C@@H](CCC(N)=O)C(=O)N[C@@H](CCC(N)=O)C(=O)N[C@@H](CCCNC(=N)N)C(=O)N[C@@H](CCCCN)C(=O)N[C@@H](CCC(=O)O)C(=O)N[C@@H](CO)C(=O)N[C@@H](CCCCN)C(=O)N[C@@H](CCCCN)C(=O)N1CCC[C@H]1C(=O)N1CCC[C@H]1C(=O)N[C@@H](C)C(N)=O)C(C)C
B9: H-PS-S(O-octyl)-FLSPEHSRVSSR-NH2 (peptide)
peptide: H-PSS(Octyl)FLSPEHSRVSSR-NH2
SMILES: CCCCCCCCOC[C@H](NC(=O)[C@H](CO)NC(=O)[C@@H]1CCCN1)C(=O)N[C@@H](Cc1ccccc1)C(=O)N[C@@H](CC(C)C)C(=O)N[C@@H](CO)C(=O)N1CCC[C@H]1C(=O)N[C@@H](CCC(=O)O)C(=O)N[C@@H](Cc1c[nH]cn1)C(=O)N[C@@H](CO)C(=O)N[C@@H](CCCNC(=N)N)C(=O)N[C@H](C(=O)N[C@@H](CO)C(=O)N[C@@H](CO)C(=O)N[C@@H](CCCNC(=N)N)C(N)=O)C(C)C
B10: H-PS-S(O-octyl)-FLSPEHSR-NH2 (peptide)
peptide: H-PSS(Octyl)FLSPEHSR-NH2
SMILES: CCCCCCCCOC[C@H](NC(=O)[C@H](CO)NC(=O)[C@@H]1CCCN1)C(=O)N[C@@H](Cc1ccccc1)C(=O)N[C@@H](CC(C)C)C(=O)N[C@@H](CO)C(=O)N1CCC[C@H]1C(=O)N[C@@H](CCC(=O)O)C(=O)N[C@@H](Cc1c[nH]cn1)C(=O)N[C@@H](CO)C(=O)N[C@@H](CCCNC(=N)N)C(N)=O

target: human growth hormone secretagogue receptor type 1a (human, UniProt Q92847 1-366); experiment: cell-based or functional assay
Sequence (Q92847 whole entry): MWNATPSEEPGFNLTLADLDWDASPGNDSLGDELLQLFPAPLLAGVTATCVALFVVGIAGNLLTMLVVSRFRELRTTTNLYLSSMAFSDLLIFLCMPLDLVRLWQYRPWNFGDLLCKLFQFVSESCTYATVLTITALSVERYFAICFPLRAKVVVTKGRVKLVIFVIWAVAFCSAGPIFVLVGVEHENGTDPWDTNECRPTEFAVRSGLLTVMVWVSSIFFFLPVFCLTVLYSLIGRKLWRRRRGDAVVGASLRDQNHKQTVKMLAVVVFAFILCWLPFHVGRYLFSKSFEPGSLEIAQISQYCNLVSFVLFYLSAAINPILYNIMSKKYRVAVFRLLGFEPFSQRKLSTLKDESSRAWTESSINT

B1 and H-PS[NH‑CH(n-C10H21)‑C(O)]FLSPEHQRVQQRKESKKPPAKLQPR-NH2 [H-PS-[NH-CH(n-C10H21)-C(O)]-FLSPEHQRVQQRKESKKPPAKLQPR-NH2] are within 1.5-fold of each other in “EC50 (nM); Ca2+ induction in HEK293 cells stably expressing the human ghrelin receptor” value (from here on “EC50 (nM); Ca2+ induction”): 0.271 nM for the first, 0.333 nM for the second.

Going from B2 to B3, the “EC50 (nM); Ca2+ induction” value rises from 0.33 nM to 0.714 nM (2.2-fold).

B4 and B5 are within 1.5-fold of each other in “EC50 (nM); Ca2+ induction” value: 0.48 nM for the first, 0.385 nM for the second.

First: B6
Second: B7
The “EC50 (nM); Ca2+ induction” value of the first is 2.5-fold lower: 0.221 nM for the first, 0.558 nM for the second.

H-PS[NH‑CH(n-C10H21)‑C(O)]FLSPEHQRVQRKESKKPPAKLQPR-NH2 [H-PS-[NH-CH(n-C10H21)-C(O)]-FLSPEHQRVQRKESKKPPAKLQPR-NH2] and B8 are within 1.5-fold of each other in “EC50 (nM); Ca2+ induction” value: 0.23 nM for the first, 0.231 nM for the second.

B9 and B10 are within 1.5-fold of each other in “EC50 (nM); Ca2+ induction” value: 0.467 nM for the first, 0.44 nM for the second.
